Drawing on paper PMC4288360, this text covers inhibition of BMP-9 (50 ng/ml)-induced alkaline phosphatase activity in murine VSMCs by ALK1-Fc (250 ng/ml and 1 μg/ml; value for one molecule.

This test addresses T1, Recombinant mouse BMP-9 (bone morphogenetic protein 9) (mouse) (UniProt Q9WV56).
T1 sequence: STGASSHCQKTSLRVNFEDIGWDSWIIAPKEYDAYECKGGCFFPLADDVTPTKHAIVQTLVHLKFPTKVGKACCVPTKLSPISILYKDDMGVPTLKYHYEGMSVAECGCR

B1: Activin receptor-like kinase-1 fusion protein (ALK1-Fc) (Fc fusion)
chain: DLAKPSKLVNCTCESPHCKRPFCQGSWCTVVLVREQGRHPQVYRGCGSLNQELCLGRPTEFLNHHCCYRSFCNHNVSLMLEATQTPSEEPEVDAHLP
With B1, the inhibition of BMP-9 (50 ng/ml)-induced alkaline phosphatase activity in murine VSMCs by ALK1-Fc (250 ng/ml and 1 μg/ml; value at 1 μg/ml), 4 days; blocks BMP-9 acting on ALK1 of the cells was found to be 33%.
